Test results from the nanobody polyreactivity screen of Harvey et al. (2022).

Experiment: yeast display, Sf9 membrane polyspecificity reagent, FACS + sequencing; frameworks hold sequencing errors
Outline: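 A synthetic nanobody library was expressed on Saccharomyces cerevisiae BJ5465 by galactose induction for 36–48 hours. The library was stained for 1 hour at 4 °C with 10% biotinylated, detergent-solubilized Sf9 membrane reagent and enriched with streptavidin microbeads before FACS. Low and high (top ~1%) gates were set on anti-HA fluorescence for expression and streptavidin fluorescence for reagent binding, and each polyreactivity label reflects the gate of origin.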

Sequence | polyreactivity (PSR sort gate)
QVQLVESGGGLVQAGGSLRLSCAASGFIFVKNAMGWYRQAPGKERELVAVISTRGGRTYYADSVKGRFTISRDNAKNTVYLQMNSLKPEDTAVYYCAALYWYSRSSWDYDYWGQGTQVTVSS | high polyreactivity
QVQLVESGGGLVQAGGSLRLSCAASGFIFVKYAMGWYRQAPGKERELVAAITNGGSTYYADSVKGRFTISRDNAKNTVYLQMNSLKPEDTAVYYCAAQYHDWWRRLLYRSFLPFDYWGQGTQVTVSS | low polyreactivity
QVQLVESGGGLVQAGGSLRLSCAASGFIFVLNVMGWYRQAPGKEMELVAAITWSGTSTYYADSVKGRFTISRDNAKNTVYLQMNSLKPEDTAVYYCNADWWSDGYDYWGQGSQVTVSS | low polyreactivity
QVQLVESGGGLVQAGGSLRLSCAASGFIFVLYAKGWYRQAPGQERELVAAISRTGGSTYYADSVKGRFTISRDNAKNTVYLQMNSLKPEDTAVYYCAVSRSKTYDYWGQGTQVTVSS | high polyreactivity
QVQLVESGGGLVQAGGSLRLSCAASGFIFVNYMGWYRQAPGKERELVAAISRGGSTNYADSVKGRFTISRDTAKNTVYLQMNSLKPEDTAVYYCAAETWYSGYTYDSCGQGTQVTVSS | low polyreactivity
QVQLVESGGGLVQAGGSLRLSCAASGFIFVPNAMGWYRQAPGNERELVAAIRSSGGTTYYADSVKGRFTISRDNAKNTVYLQMNSLKPEDTAVYYCAAKYTSRLNSGYSNYYWGQGTQVTVSW | high polyreactivity
QVQLVESGGGLVQAGGSLRLSCAASGFIFVPYAMGWYRQAPGKERELVAAISSSGGSTNYTDSVKGRFTISRDNAKNTVYLQMISLKPEDTAVYYCAAATWYVNPTHFNRYSEFYYWGQGTQVTVSS | low polyreactivity
QVQLVESGGGLVQAGGSLRLSCAASGFIFVPYAMGWYRQAPGQERELVAAISSSGGSTNYTDSVKGRFTISRDNAKNSVYLQMNRLKPEDTAVYYCAAATWYVNPTHFNRYSEFYYWGQGTQVTVSS | low polyreactivity
QVQLVESGGGLVQAGGSLRLSCAASGFIFVQYAMGWYRQAPGKERELVAAITKSGGRTYYADSVKGRFTISRDNAKNTVYLQMNSLKPEDTAVYYCAALGNGNFPTVDYWGQGTQVTVSS | high polyreactivity
QVQLVESGGGLVQAGGSLRLSCAASGFIFVRYAMGWYRQAPGKERELVAAISSGGSTKYADSVKGRFTISRDNAKNTVYLQMNSLKPEDTAVYYCAADATPGRGVDYWGQGTQVTVSS | high polyreactivity
QVQLVESGGGLVQAGGSLRLSCAASGFIFVRYAMGWYRQAPGKERELVAAISTSGSSTYYADSVKGRFTISRDNAKNTVFLQMNSLKPEDTAVYYCAAKDRGQSYGYWGQGTQVTVSS | high polyreactivity
QVQLVESGGGLVQAGGSLRLSCAASGFIFVSNAMGWYRQAPGKERELVATITNGDRTYYADSVKGRFTISRDNAKNTVYLQMNSLKPEDTGVYYCNADDQVGSIWKWYGKYEYRGQGTQVTVSS | low polyreactivity
QVQLVESGGGLVQAGGSLRLSCAASGFIFVVYAMGWYRQAPGKERELVATISSGGGTYYADSVKGRFTISRDNAKNSVYFQMNSLKPEDTAVYYCAARRSRLYHFGGNNYWGQGTQVTVSS | high polyreactivity
QVQLVESGGGLVQAGGSLRLSCAASGFIFVYNAMGWYRQATGKERELVAAIDYGGGSTTYADSVKVRFTISRDNAKNTVYLQMNSLKPEDTAVYYCAAYYRYLDDIYEYEYWGQGTQVTVSS | low polyreactivity
QVQLVESGGGLVQAGGSLRLSCAASGFIFVYYAMVWYRQAPGKERELVAAITLRGGSTNYADSVKGRFTISRDNAKNTVYLQMNSRKPEDTAVYYCAAYSVWGGSYLALDYWGQGTQVTVSS | low polyreactivity
QVQLVESGGGLVQAGGSLRLSCAASGFIFVYYTMGWYRQAPGNERELVAAISVSGGRTYYADSVKGRFTISRDNAKNTVYLQMNSLKPEDTAVYYCNARNGYGIGYWGQGTQVTVSS | high polyreactivity
QVQLVESGGGLVQAGGSLRLSCAASGFIFVYYVMGWYRTAPGKERELVAAITQSGGSTYYADSVKGRFTISRDNAKNTVYLQMNSLKPEDTAVYYCAAYRRTTGGGYDYWGQGTQVTVSS | high polyreactivity
QVQLVESGGGLVQAGGSLRLSCAASGFIFWAYDMGWYRQAPGKERELVAGIDWSGGSTYYADSVKGRFTISRDNAKNTVYLQMNSLKPEDTAVYYCAADRLLYGGGREYWGQGTQVTVSS | high polyreactivity
QVQLVESGGGLVQAGGSLRLSCAASGFIFWDYALGWYRQAPGKEREFVANISRSVGSTYYADSVKGRFTISRDNAKNTVYLQMYTLKPEDTAVYYCAAVTWGEGFDYWGQGTQVTVSS | low polyreactivity
QVQLVESGGGLVQAGGSLRLSCAASGFIFWGNAMGWYRQAPGKERELVAAISSSSGSTYYADSVKGRFTISRDNAKNTVYLQMNSLKPVDSAVYDCAVDTPRSYRAQGAYNYWGQGTQVTVSS | low polyreactivity
QVQLVESGGGLVQAGGSLRLSCAASGFIFWKYAMGWYRPAPGKERELVAAISRSGGRTYYADSVKGRFTISRDNAKNTVYLQMNSLKPEDTAVYYCAKDSATYPYGTVGEYNYWGQGTQVTVSS | high polyreactivity
QVQLVESGGGLVQAGGSLRLSCAASGFIFWLYAMGWSRQAPGKERELVASINWSGGDTYYADSVKGRFTISRDKAKNTVYLQMNSLKPEDTAVYYCAARYWSIYDYWGQGTQVTVSS | low polyreactivity

Sequence | polyreactivity (PSR sort gate)
QVQLVESGGGLVQAGGSLRLSCAASGFIFWLYAMGWYRQAPGKERELVAAISRSGGRTYYADSVKGRFTISRDNAKITVYLQMNSLKPEDTAVYYFAKVDNYKSYPYDYWGQGTQVTVSS | high polyreactivity
QVQLVESGGGLVQAGGSLRLSCAASGFIFWSNAMGWYRQAPGKERELVAAISWSGGSTYYADSVKGRFTISRDNAKKTVYLQMNSLKPEDTAVYYCNTLNVQRDEHDYWGQGTQVTVSS | high polyreactivity
QVQLVESGGGLVQAGGSLRLSCAASGFIFWSNAMGWYRQAPGKERELVAAISWSGGSTYYADSVKGRFTISRDNAKNTVYLQMNSLKPEDTAVYYCNTLNVQRDEHDYWGQGTQVTVSS | high polyreactivity
QVQLVESGGGLVQAGGSLRLSCAASGFIFWSNARGWYRQAPGQDRELVAAINSSGGRTDYADSVKGRFTNSRDNAKNTDYLHMNSLKPEDTAVYYCAARLHSPPYRYDYWGQGTQVTVSS | high polyreactivity
QVQLVESGGGLVQAGGSLRLSCAASGFIFWSYAMGWYRQAPGKERELVAAINTSTGRTYYADSVKGRFTISRDNAKNTVYLQMNSLKPEDTAVYYCAADLPWGPLFDYWGQGTQVTVSS | low polyreactivity
QVQLVESGGGLVQAGGSLRLSCAASGFIFWTYAMGWYRQAPGKERELVAAISSGGTITKYADSVKGRFTISRDNATNTVYLQMNSLKPEDTAVYYCNARENAVSLRDYWGQGTQVTVSS | high polyreactivity
QVQLVESGGGLVQAGGSLRLSCAASGFIFWTYAMGWYRQAPGKERELVARISWSGGSTYYADSVKGRFTISRDNAKNTVYLQMNSLKPEDTAVYYCARLATLYESIEYDYWGHGTQVTVSS | low polyreactivity
QVQLVESGGGLVQAGGSLRLSCAASGFIFWVYAMGWYRQAPGKESELVAAITSGGRTYYADSEKGRFTISRDNAKNTVYLQMNSLKPEDTAVYYCAARWHYGYYSYYYWGQGTQVTVSS | high polyreactivity
QVQLVESGGGLVQAGGSLRLSCAASGFIFWYYAMGWYRQAPGKERELVATITTGGGTNYADSVKGRFTISRDNAKNTVYLQMNSLKPEDTAVYYCNADFRWYAEDDYWGQGTQVTVSS | low polyreactivity
QVQLVESGGGLVQAGGSLRLSCAASGFIFYAYAMGWYRPAPGKERELVAAISQRGGITYYADSVKGRFTISRDNAKNTVYLQMNRLKPEDTAVYYCNAGQRYYTSRYYYWGQGTQVTVSS | high polyreactivity
QVQLVESGGGLVQAGGSLRLSCAASGFIFYDNAMGWYRQAPGKERELVAAITSGGSTYYADSVKGRFTISRDNAKNTVYLQMNSLKPEDTAVYYCATRPWGSWYYYWGQGTQVTVSS | high polyreactivity
QVQLVESGGGLVQAGGSLRLSCAASGFIFYDYAMGWYRQAPGKERELVASISWSTGSTYYADSVKGRFTISRDNAKNTVYLQMNSLKPEDTADYYCAADGYPLQLYNYWGQGTQVTVSS | low polyreactivity
QVQLVESGGGLVQAGGSLRLSCAASGFIFYDYDMGWYRQSPGKERELVAAISSGGSTNYADSVKGRFTISRDNAKNTVYLQMNSLIPEDTAVYYCATDVGVERRQVDRYIYDYWGQGTQVTVSS | low polyreactivity
QVQLVESGGGLVQAGGSLRLSCAASGFIFYGYAMGWYRQAPGKERELVAGISTGGSTNYADSVKGRFTISRDNAKNTVYLQMNSLKPEDTAVYYCAKRAYFYYGRYDYWGQGTQVTVSS | low polyreactivity
QVQLVESGGGLVQAGGSLRLSCAASGFIFYGYTMGWYRQAPGKERELLARISRRGGSTYYADSVKGRFTISRDNAKNTVYLQMNSLKPEDTAVYYCATDDARRGYGYGYWGQGPQVTVSS | low polyreactivity
QVQLVESGGGLVQAGGSLRLSCAASGFIFYGYTMGWYRQAPGKERELVAAITFSGGRTYYADSVKGRFTISRDNAKNTVYLQMNSLKPEDTAVYYCNARVVNYFRPRTGAREYDYWGQGTQVTVSS | high polyreactivity
QVQLVESGGGLVQAGGSLRLSCAASGFIFYHNAMGWYRQAPGKERELVAAISSTGGSTHYADSVKGRFTISRDNAKNTVYLQMNSLKPEDTAVYYCNADPRRRWYDYWGQGTQVTVSS | high polyreactivity
QVQLVESGGGLVQAGGSLRLSCAASGFIFYHNAMGWYRQAPGKERELVAAISYSGGSTYYADSVKGRFTISRVNAKNTVYLQMNSLKPEDTAVYFCATPQTRTYDYWGQGTQVTVSS | high polyreactivity
QVQLVESGGGLVQAGGSLRLSCAASGFIFYINAMGWYRQAPGKERELVAAINWRTGSTYYADSVKGRFTISRDNAKNTVYLLMNSLKPEDTAVYYCAAYGYWRRADTEFDYWGQGTQVTVSS | low polyreactivity
QVQLVESGGGLVQAGGSLRLSCAASGFIFYIYAMGWYRQAPGKERELVAAFTSGGSTYYADSVKGRFTISRDNAKNTVYLQMNSLKPEDTAVYYCAAESYYGYDYWGQGTQVTVSS | low polyreactivity
QVQLVESGGGLVQAGGSLRLSCAASGFIFYKYAMGWYRQAPGKERELVAAITRSGGSTFYADSVKGRFTISRDNAKNTVYLQMNSLKPEDTAVYYCAADAIVQVTPRPRRYDYWGQGTQVTVSS | high polyreactivity
